This is an account of results in publication doi:10.1101/2020.05.08.085126.

Read-outs that look alike come from different tables or passages of the source.

The target in data set [1] is T1, His-MBP-STF-HD (Medicago truncatula, UniProt G0ZGT3 85-190).
T1 sequence: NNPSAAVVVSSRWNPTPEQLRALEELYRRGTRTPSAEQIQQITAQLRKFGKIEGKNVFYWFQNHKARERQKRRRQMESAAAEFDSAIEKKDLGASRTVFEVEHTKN
Nature of the data set: EMSA. Background: Mobility shift assays separate free from complexed probe on a gel.

Data set [2] concerns the target T1, His-MBP-STF-HD. Nature of the data set: EMSA. This is another data set of the same source.

B1: MtLOB38 promoter P1 (dsDNA)
DNA 1: AAAAAAAAATTATATATTAATAGTAATAAATAATAAAAAATAAT
DNA 2: ATTATTTTTTATTATTTATTACTATTAATATATAATTTTTTTTT
Regarding B1, the binding result with His-MBP-STF-HD [1] is reported as “binds”.

B2: MtLOB39 promoter P1 (dsDNA)
DNA 1: GACCAATCAATGTTGAAAATGTAGAATATT
DNA 2: AATATTCTACATTTTCAACATTGATTGGTC
In the case of B2, in the data set with His-MBP-STF-HD [2], the binding result was “binds”.

B3: MtLOB38 promoter P2 (dsDNA)
DNA 1: TCAAATTTCAAATAGAATAAATTTGAAAGTGATAAATGATTAATTATTTT
DNA 2: AAAATAATTAATCATTTATCACTTTCAAATTTATTCTATTTGAAATTTGA
As for B3, the binding result with His-MBP-STF-HD [1] is recorded as “binds”.

B4: MtLOB39 promoter P3 (dsDNA)
DNA 1: CTTTCAATTATACATTTTAATTAATATTAATTT
DNA 2: AAATTAATATTAATTAAAATGTATAATTGAAAG
On to B4, for which the binding result in the data set with His-MBP-STF-HD [2] is “binds”.

B5: MtLOB39 promoter P2 (dsDNA)
DNA 1: TATTCAAATTAATGATTTATTCAATTTT
DNA 2: AAAATTGAATAAATCATTAATTTGAATA
For B5, in the data set with His-MBP-STF-HD [2], the binding result is given as “binds”.
